Measurements: US20240059757A1 (VIR BIOTECHNOLOGY, published 2024)
Read-outs that look alike come from different tables or passages of the source.

Experiments:
SARS-CoV-2 Spike protein [1] = biological target: T1, SARS-CoV-2 Spike protein (SARS-CoV-2 Wuhan-Hu-1, UniProt P0DTC2 14-1273); assay: cell-based or functional assay
SARS-CoV Spike protein = SARS-CoV Spike protein (SARS-CoV, UniProt P59594 14-1255); assay: cell-based or functional assay
SARS-CoV-2 Spike protein [2] = biological target: T1, SARS-CoV-2 Spike protein; assay: cell-based or functional assay; remark: listed apart in the source
[3] = biological target: T2, SARS-CoV-2 RBD (residues 331-550 of spike from BetaCoV/Wuhan-Hu-1/2019, accession number MN908947) (SARS-CoV-2 Wuhan-Hu-1, UniProt P0DTC2 331-550); assay: BLI
[4] = biological target: T3, SARS-CoV RBD (Sino Biological) (SARS-CoV, UniProt P59594 306-527); assay: BLI
[5] = biological target: T2, SARS-CoV-2 RBD (residues 331-550 of …); assay: ELISA
[6] = biological target: T3, SARS-CoV RBD (Sino Biological); assay: ELISA
[7] = biological target: T4, SARS-CoV-2 RBD-mouse Fc (Sino Biological) (SARS-CoV-2, UniProt P0DTC2 331-541)
[8] = biological target: T2, SARS-CoV-2 RBD (residues 331-550 of …); assay: BLI (Octet): antibody on Protein A pins, SARS-CoV-2 RBD at 6, 1.5 and 0.4 µg/ml
SARS-CoV-2 Spike protein [9] = biological target: T1, SARS-CoV-2 Spike protein
[10] = biological target: T3, SARS-CoV RBD (Sino Biological)
SARS-CoV-2 Spike protein [11] = biological target: T1, SARS-CoV-2 Spike protein; assay: cell-based or functional assay; remark: listed apart in the source
SARS-CoV-2 Spike protein [12] = biological target: T1, SARS-CoV-2 Spike protein; assay: cell-based or functional assay; remark: listed apart in the source
[13] = biological target: T4, SARS-CoV-2 RBD-mouse Fc (Sino …); remark: listed apart in the source
[14] = biological target: T2, SARS-CoV-2 RBD (residues 331-550 of …)
[15] = biological target: T3, SARS-CoV RBD (Sino Biological); assay: ELISA; remark: listed apart in the source
[16] = biological target: T4, SARS-CoV-2 RBD-mouse Fc (Sino …); remark: listed apart in the source
SARS-CoV-2 Spike protein [17] = biological target: T1, SARS-CoV-2 Spike protein; assay: cell-based or functional assay; remark: listed apart in the source
SARS-CoV-2 Spike protein [18] = biological target: T1, SARS-CoV-2 Spike protein; remark: listed apart in the source
[19] = biological target: T2, SARS-CoV-2 RBD (residues 331-550 of …); assay: BLI (Octet): antibody on Protein A pins, SARS-CoV-2 RBD at 6, 1.5 and 0.4 µg/ml; remark: listed apart in the source
[20] = biological target: T4, SARS-CoV-2 RBD-mouse Fc (Sino …); remark: listed apart in the source

B1: S2D22 (antibody, V domains shown)
VH: EVHLVESGGGLVQPGGSLKLSCAASGFTFSGSAMHWVRQASGKGLEWVGRIRTKANTYATAYAASVKGRFTISRDDSKNTAYLQMNSLKTEDTAVYYCTRPAPYDFLSDYYTGEQLDYWGQGTLVTVSS
VL: QSVLTQPPSVSGAPGQRVTISCTGSSSNIGAGYDVHWYQQLPGAAPKLLIYGNSNRPSGVPDRFSGSKSGTSASLAITGLQAEDEADYYCQSYDSSLSGPEVFGTGTKVTVL
With B1 the “neutralization IC50” value (SARS-CoV-2 Spike protein [1]) was 0.865 µg/mL, the “neutralization IC80” value (SARS-CoV-2 Spike protein [1]) was 3.28 µg/mL and the “neutralization IC90” value (SARS-CoV-2 Spike protein [1]) was 7.16 µg/mL. For the same binder, the “neutralization IC95” value (SARS-CoV-2 Spike protein [1]) was 14.7 µg/mL, the “neutralization IC50” value (SARS-CoV Spike protein) was 3.63 µg/mL and the “neutralization IC50” value (SARS-CoV-2 Spike protein [2]) was 1.03 µg/mL. It also gave a Kd [3] of 5.21 nM, a Kd [4] of 53.5 nM and an EC50 [5] of 0.0353 µg/mL. The EC50 [6] was 0.0422 µg/mL.

B2: S2X129 (antibody, V domains shown)
VH: EVQLVQSGAEVKKPGASVKVSCKASGYTFTDYFMHWVRQAPGQGLEWMGWISPNSGGTNYAQRFQGRVTMTRDTSISTTYMELSRLRSDDTAVYYCARDQAYIVLAQGSGMDVWGQGTTVTVSS
VL: DIVMTQTPSSVSASVGDRVTITCRASQGISSWLAWYQQKPGKAPKLLISAASSLQSGVPSRFSGSGSGTDFTLTISTLQPEDFATYYCQQANSFPLAFGPGTKVDIK
B2 showed an IC50 [7] of 0.0214 µg/mL and a Kd [8] of 0.857 nM.

B3: S2B2 v1 (antibody, V domains shown)
VH: QVQLVESGGGVVQPGRSLRLSCAASGFTFSNFGMHWVRQAPGKGLEWVAVISYDGNNKFYADSVKGRFTISRDNSKNTLYLQMNSLRAEDTAVYYCAKPTVSFGVVIDAFDIWGQGTMVTVSS
VL: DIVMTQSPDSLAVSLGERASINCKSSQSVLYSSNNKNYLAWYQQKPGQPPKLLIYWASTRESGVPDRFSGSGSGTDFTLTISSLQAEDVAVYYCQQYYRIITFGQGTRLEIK
In the case of B3, the EC50 (SARS-CoV-2 Spike protein [9]) is reported as 0.0107 µg/mL.

B4: S2B2 v2 (antibody, V domains shown)
VH: EVQLVESGGGVVQPGRSLRLSCAASGFTFSNFGMHWVRQAPGKGLEWVAVISYDGNNKFYADSVKGRFTISRDNSKNTLYLQMNSLRAEDTAVYYCSKPTVSFGVVIDAFDIWGQGTMVTVSS
VL: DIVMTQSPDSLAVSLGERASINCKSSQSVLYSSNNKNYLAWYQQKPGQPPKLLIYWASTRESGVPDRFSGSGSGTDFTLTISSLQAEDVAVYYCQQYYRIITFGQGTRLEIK
Work on B4 yielded an EC50 (SARS-CoV-2 Spike protein [9]) of 0.00812 µg/mL.

B5: S2X227 (antibody, V domains shown)
VH: EVQLVQSGAEVKKPGASVKVSCKASGYTFTSYYMHWVRQAPGQGLEWMGIINPGGVSTTYAHYAQKFQGRVTMTRDTSTSTVYMELSSLRSEDTAVYYCARSIAVFWGDAFDIWGQGTMVTVSS
VL: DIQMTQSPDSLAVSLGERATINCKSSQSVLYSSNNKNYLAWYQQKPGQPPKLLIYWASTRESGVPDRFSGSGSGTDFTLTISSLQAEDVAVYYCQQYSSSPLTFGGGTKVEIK
In the case of B5, the EC50 [10] is reported as 1.35 µg/mL, the “neutralization IC50” value (SARS-CoV-2 Spike protein [11]) is reported as 0.00445 µg/mL and the “neutralization EC50 (interpolated)” value (SARS-CoV-2 Spike protein [12]) is reported as 0.0053 µg/mL. The IC50 [13] was 0.0274 µg/mL and the EC50 [14] was 0.00109 µg/mL.

B6: S2D32 (antibody, V domains shown)
VH: EVQLVESGGGLVQPGRSLRLSCTSSGFTFGDYPMSWFRQAPGKGLEWVGFIRSKAYGGTTQYAASVKGRFTISRDDSKNIAYLQMNSLKTEDTAVYYCTREMWDCSGGRCYSPFFDYWGQGTLVTVSS
VL: EIVMTQSPATLSVSPGERATLSCRASQTVSSNLAWYQQKPGQAPRLLIYGASTRATGIPARFSGSGSGTEFTLTISSLQSEDFAVYYCQQYNNWRTFGQGTKLEIK
B6 was tested, and the “neutralization IC50” value (SARS-CoV-2 Spike protein [1]) was 0.036 µg/mL, the “neutralization IC80” value (SARS-CoV-2 Spike protein [1]) was 0.081 µg/mL and the “neutralization IC90” value (SARS-CoV-2 Spike protein [1]) was 0.129 µg/mL. For the same binder, the “neutralization IC95” value (SARS-CoV-2 Spike protein [1]) was 0.2 µg/mL, the binding result [15] was “no binding” and the “IC50 (read off the curve)” value [16] was about 0.03 µg/mL.

B7: S2H7 (antibody, V domains shown)
VH: EVQLVESGGGLVQPGGSLRLSCAASGFIVSSNYMSWVRQAPGKGLEWVSVIYSGGSTYYADSVKGRFTISRDNSKNTLYLQMNSLRAEDTSVYYCARDRQYSGSPSFDYWGQGTLVTVSS
VL: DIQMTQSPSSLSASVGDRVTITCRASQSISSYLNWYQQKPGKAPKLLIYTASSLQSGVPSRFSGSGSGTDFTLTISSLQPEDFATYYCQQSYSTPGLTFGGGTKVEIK
With B7 the “neutralization IC50” value (SARS-CoV-2 Spike protein [17]) was 0.195 µg/mL.

B8: S2A15 v1 (antibody, V domains shown)
VH: QVQLQESGPGLVKPSGTLSLTCAVSGGSISSSNWWSWVRQPPGKGLEWIGEIYHSGNTNYNPSLKSRVTISVDKSKNQFSLKLTSVTAADTAVYYCASRYCSSTSCPNWFDPWGQGTLVTVSS
VL: QSALTQPASVSGSPGQSITISCTGTSSDVGSYNLVSWYQQHPGKAPKFMIYEGSKRPSGVSNRFSGSKSGNTASLTISGLQAEDEADYYCCSYAGSSTWVFGGGTKLTVL
For B8, the EC50 (SARS-CoV-2 Spike protein [18]) was 0.656 µg/mL.

B9: S2A15 v2 (antibody, V domains shown)
VH: QITLKESGPGLVKPSGTLSLTCAVSGGSISSSNWWSWVRQPPGKGLEWIGEIYHSGNTNYNPSLKSRVTISVDKSKNQFSLKLTSVTAADTAVYYCASRYCSSTSCPNWFDPWGQGTLVTVSS
VL: QSALTQPASVSGSPGQSITISCTGTSSDVGSYNLVSWYQQHPGKAPKFMIYEGSKRPSGVSNRFSGSKSGNTASLTISGLQAEDEADYYCCSYAGSSTWVFGGGTKLTVL
For B9, the EC50 (SARS-CoV-2 Spike protein [18]) was 0.335 µg/mL.

B10: S2X127 (antibody, V domains shown)
VH: EVQLVESGGGLIQPGGSLRLSCAASGLTVRSNYMSWVRQAPGKGLEWVSVMYSGGSTFYADSVKGRSTISRDNSKNTLYLQMNSLRAEDTAVYYCARGDIADDYHYGLDVWGQGTTVTVSS
VL: QSVLTQPPSVSGAPGQRVTISCTGSTSNIGAGYNVHWYQHFPGTSPKLLIYGNSNRPSGVPDRFSGSKSGTSASLAITGLQAEDEAAYYCQSYDSNLSGVFGGGTKLTVL
Work on B10 yielded an IC50 [7] of 0.0102 µg/mL and a Kd [19] of under 0.001 nM.

B11: S2D8 (antibody, V domains shown)
VH: EVQLLESGGGLVQPGGSLRLSCAASGFTFTTYAMSWVRQAPGKGLEWVSGISGSGGNTYHADSVKGRFTISRDNSKSTLYLQMNSLRAEDTAVYYCAKDLWFREILHGMDVWGEGTTVTVSS
VL: QSALTQPASVSGSPGQSITISCTGTSSDIGGYNYVSWYQHHPGKAPKIMIYEVTNRPSGVSNRFSGSKSGNTASLTISGLQAEDEADYYCSSYTSSNTYVFGTGTKVTVL
With B11 the “neutralization IC50” value (SARS-CoV-2 Spike protein [1]) was 0.03 µg/mL, the “neutralization IC80” value (SARS-CoV-2 Spike protein [1]) was 0.058 µg/mL and the “neutralization IC90” value (SARS-CoV-2 Spike protein [1]) was 0.087 µg/mL. The “neutralization IC95” value (SARS-CoV-2 Spike protein [1]) was 0.125 µg/mL, the binding result [15] was “no binding” and the “IC50 (read off the curve)” value [20] was about 0.03 µg/mL.

B12: S2D25 (antibody, V domains shown)
VH: EVQLVESGGGLVQPGGSLRLSCAASGFPFNIYAMSWVRQAPGKGLEWVSGISGSGGSTYYADSVRGRFAISRDNSKNTLYLQMNSLRAEDTAEYYCAKDLWFREILHGMDVWGKGTTVTVSS
VL: QSALTQPASVSGSPGQSITISCTGTSSDVGGYNYVSWYQHHPGRAPKLMIYEVSNRPSGVSNRFSGSKSGNTASLSISGLQAEDEADYYCSSYTSSSTYVFGAGTKVTVL
With B12 the “neutralization IC50” value (SARS-CoV-2 Spike protein [1]) was 0.04 µg/mL, the “neutralization IC80” value (SARS-CoV-2 Spike protein [1]) was 0.091 µg/mL and the “neutralization IC90” value (SARS-CoV-2 Spike protein [1]) was 0.146 µg/mL. For the same binder, the “neutralization IC95” value (SARS-CoV-2 Spike protein [1]) was 0.228 µg/mL, the binding result [15] was “no binding” and the “IC50 (read off the curve)” value [16] was about 0.03 µg/mL.

B13: S2H14 (antibody, V domains shown)
VH: not shown
VL: NFMLTQPHSVSESPGKTVTISCTRSSGSIASNYVQWYQQRPGSSPTTVIYEDNQRPSGVPDRFSGSIDSSSNSASLTISGLKTEDEADYYCQSYDSSNQVFGGGTKLTVL
With B13 the “neutralization IC50” value (SARS-CoV-2 Spike protein [17]) was 0.847 µg/mL.

B14: S2A4 (antibody, V domains shown)
VH: EVQLVESGGGLVQPGGSLRLSCAASGFTFSSYWMNWVRQAPGKGLEWVANIKQDGSEKYYVDSVKGRFTISRDNAKNSLFLQMNSLRAEDTAVYYCARVWWLRGSFDYWGQGTLVTVSS
VL: NFMLTQPHSVSESPGKTVTISCTGSSGSIASNYVQWYQQRPGSAPTTVIYEDNQRPSGVPDRFSGSIDSSSNSASLTISGLKTEDEADYYCQSYDSSNHVVFGGGTKLTVL
In the case of B14, the “neutralization IC50” value (SARS-CoV-2 Spike protein [17]) is reported as 3.45 µg/mL and the “IC50 (read off the curve)” value [20] is reported as about 0.06 µg/mL.
